The values below come from patent publication US20190233824A1, “PD-1 SPECIFIC APTAMERS” (THE METHODIST HOSPITAL SYSTEM, published 2019).

For this data set, the target named is PD-1 (PDCD1, recombinant full length) (Homo sapiens, UniProt Q15116 Q15116:25-288). Nature of the data set: BLI; per-concentration fits 9.90, 4.17, 1.34 nM; phosphate pH 7.4, 137 mM NaCl, 2.7 mM KCl, 0.1% BSA, 0.01% Tween-20, 25 C. To be noted: tags: ACROBiosystems, produced in HEK293; label: 5' biotin (BLI) or FAM (flow); predicted hairpin-bulge / possible G-quadruplex.
PD-1 (PDCD1, recombinant full length), sequence (Q15116 25-288, one chain of several): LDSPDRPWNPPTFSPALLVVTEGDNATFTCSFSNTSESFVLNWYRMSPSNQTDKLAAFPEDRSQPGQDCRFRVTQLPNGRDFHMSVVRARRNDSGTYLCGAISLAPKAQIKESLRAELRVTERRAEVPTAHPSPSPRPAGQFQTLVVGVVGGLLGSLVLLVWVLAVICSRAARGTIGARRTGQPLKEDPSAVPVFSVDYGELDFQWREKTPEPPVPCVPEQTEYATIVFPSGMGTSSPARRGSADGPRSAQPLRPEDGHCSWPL

Experimental: Specific PD-1 5′ biotinylated DNA aptamer (Midland Oligos) were prepared in the concentration range of (10 nM and 100 nM). […] Octet Red analysis software (ForteBio) was used to analyze the sensorgram data.

B1: fpf2 (10-150-373) (ssDNA)
DNA: CCGTATACATACCTGATAGCGTATGCGAGGAAGTGGGCTTGGTGTGGTGGGCTTCTCTCAGTAGGTGCATAAGCGCATGCATGC
For the molecule B1, the binding result is on record as “binds”.
